Source: doi:10.1101/2020.11.19.389429

Molecular target: CHD7 full length WT (UniProt Q9P2D1)
Experiment: single-molecule PIFE/smFRET

Chain of UniProt Q9P2D1 (Q9P2D1 whole entry): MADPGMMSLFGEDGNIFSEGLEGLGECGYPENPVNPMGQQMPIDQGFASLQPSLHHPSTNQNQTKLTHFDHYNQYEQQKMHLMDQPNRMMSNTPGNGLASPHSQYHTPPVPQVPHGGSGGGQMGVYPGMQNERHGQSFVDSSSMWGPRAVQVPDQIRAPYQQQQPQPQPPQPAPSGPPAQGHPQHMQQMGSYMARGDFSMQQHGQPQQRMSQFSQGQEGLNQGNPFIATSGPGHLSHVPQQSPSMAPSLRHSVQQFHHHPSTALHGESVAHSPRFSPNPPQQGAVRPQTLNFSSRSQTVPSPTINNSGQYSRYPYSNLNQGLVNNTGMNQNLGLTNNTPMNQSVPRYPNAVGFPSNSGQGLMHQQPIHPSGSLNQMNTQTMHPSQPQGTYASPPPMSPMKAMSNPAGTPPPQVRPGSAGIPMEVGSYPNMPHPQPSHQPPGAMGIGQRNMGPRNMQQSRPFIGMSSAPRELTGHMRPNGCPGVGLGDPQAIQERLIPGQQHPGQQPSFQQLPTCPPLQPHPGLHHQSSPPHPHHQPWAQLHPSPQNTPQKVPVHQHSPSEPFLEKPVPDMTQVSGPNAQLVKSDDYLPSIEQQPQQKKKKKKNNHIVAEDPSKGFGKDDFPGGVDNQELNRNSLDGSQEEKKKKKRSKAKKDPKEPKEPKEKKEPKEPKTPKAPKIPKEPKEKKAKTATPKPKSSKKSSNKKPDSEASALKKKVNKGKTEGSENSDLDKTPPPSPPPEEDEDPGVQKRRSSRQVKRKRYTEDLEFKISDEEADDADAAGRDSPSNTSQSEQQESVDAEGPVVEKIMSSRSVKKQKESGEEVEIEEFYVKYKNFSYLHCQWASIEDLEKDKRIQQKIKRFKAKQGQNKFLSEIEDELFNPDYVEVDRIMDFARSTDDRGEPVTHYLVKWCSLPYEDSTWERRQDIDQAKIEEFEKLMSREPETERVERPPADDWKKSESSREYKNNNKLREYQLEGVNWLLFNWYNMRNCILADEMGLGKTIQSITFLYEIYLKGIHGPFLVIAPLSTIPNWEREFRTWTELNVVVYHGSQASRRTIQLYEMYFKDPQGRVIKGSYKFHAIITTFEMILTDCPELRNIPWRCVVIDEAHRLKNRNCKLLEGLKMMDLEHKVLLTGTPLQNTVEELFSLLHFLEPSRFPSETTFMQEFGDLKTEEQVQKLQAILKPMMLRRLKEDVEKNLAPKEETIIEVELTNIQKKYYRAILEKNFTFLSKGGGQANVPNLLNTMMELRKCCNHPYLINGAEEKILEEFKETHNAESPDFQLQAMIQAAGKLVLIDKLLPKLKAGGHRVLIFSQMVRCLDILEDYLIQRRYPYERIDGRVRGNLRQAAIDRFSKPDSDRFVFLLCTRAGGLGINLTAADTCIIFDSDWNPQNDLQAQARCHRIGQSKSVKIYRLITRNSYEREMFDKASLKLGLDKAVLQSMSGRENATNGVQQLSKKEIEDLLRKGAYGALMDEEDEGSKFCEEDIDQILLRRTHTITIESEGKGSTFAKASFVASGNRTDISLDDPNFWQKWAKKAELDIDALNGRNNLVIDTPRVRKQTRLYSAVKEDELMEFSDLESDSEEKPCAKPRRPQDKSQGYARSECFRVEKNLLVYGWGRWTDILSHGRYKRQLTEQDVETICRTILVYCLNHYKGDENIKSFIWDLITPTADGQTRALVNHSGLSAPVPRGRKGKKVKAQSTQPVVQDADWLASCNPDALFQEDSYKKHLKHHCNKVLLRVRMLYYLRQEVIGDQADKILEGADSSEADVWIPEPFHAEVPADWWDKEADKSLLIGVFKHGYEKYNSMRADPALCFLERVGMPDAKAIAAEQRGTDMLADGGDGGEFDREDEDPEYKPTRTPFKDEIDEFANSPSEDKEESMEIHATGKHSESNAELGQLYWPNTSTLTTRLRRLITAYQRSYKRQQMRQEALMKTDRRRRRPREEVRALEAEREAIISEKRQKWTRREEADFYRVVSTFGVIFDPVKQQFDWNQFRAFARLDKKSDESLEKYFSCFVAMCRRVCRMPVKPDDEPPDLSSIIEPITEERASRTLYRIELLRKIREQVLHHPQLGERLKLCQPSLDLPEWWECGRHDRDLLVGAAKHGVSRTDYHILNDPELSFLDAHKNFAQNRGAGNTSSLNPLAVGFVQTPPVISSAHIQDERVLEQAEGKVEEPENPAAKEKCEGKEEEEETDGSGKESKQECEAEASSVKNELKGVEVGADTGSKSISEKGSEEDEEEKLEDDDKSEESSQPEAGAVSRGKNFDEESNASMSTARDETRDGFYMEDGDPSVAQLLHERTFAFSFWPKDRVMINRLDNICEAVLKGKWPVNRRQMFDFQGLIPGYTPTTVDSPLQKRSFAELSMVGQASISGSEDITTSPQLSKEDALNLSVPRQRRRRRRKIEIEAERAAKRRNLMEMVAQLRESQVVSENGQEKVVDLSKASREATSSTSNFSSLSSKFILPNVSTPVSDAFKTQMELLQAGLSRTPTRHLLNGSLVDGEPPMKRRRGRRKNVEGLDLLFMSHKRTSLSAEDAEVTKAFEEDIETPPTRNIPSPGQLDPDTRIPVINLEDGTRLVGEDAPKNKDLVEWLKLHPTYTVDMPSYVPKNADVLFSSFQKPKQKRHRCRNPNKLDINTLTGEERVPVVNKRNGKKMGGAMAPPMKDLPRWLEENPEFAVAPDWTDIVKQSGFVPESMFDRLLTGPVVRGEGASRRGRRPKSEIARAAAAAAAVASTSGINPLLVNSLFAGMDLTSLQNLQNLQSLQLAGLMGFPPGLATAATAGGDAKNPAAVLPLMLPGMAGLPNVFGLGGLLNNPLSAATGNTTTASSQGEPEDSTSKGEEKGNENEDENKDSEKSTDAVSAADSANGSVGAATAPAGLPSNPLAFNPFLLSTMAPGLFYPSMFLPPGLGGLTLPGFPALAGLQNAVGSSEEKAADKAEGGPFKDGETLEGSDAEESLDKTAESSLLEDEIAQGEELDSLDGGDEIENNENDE

## GCCCTGGAGAATCCCGGTCTGCAGGCCGCTCAATTGGTCGTAGACAGCTCTAGCACCGCTTAAACGCACGTACGCGCTGTCCCCCGCGTTTTAACCGCCAAGGGGATTACTCCCTAGTCTCCAGGCACGTGTCAGATATATACATCCTGTGCATGTATTGAACAGCGACCTTGCCGGTGCCAGTCGGATAGTGTTCCGAGCTCCCACTCTAGAGGATCCCCGGGTACC (double strand) [smFRET 601 nucleosome, 3 bp exit linker, 78 bp entry linker]
  binding signal (% of nucleosomes with PIFE): 76.5
